Reference: PMC6776071 (2019)
Bridge positions count the residues as written; N and C are the ends.

B1: M-Hir (M-hirudin-HN-His tag) (natural protein)
chain: MNRYSVCTETGQNLCLCEGSDLCSLDNHCEIGSNGKNRCVKGEGKPKKPQSNSDLPEEKYEPIPIEDYDK
modifications: disulfide 7-15, 17-29, 23-39
B2: mature hirudin-HN protein (Hir) (natural protein)
chain: NRYSVCTETGQNLCLCEGSDLCSLDNHCEIGSNGKNRCVKGEGKPKKPQSNSDLPEEKYEPIPIEDYDK

Biological target: thrombin (bovine alpha-thrombin) (bovine)
Experiment: SPR

| Binder | Kd [µM] |
| --- | --- |
| B1 | 2.97 |
| B2 | 0.0647 |
